Measured values taken from patent US11168306 (University of California, dated 2021).
Read-outs that look alike come from different tables or passages of the source. Ends that are not written are not given here. * marks the point of attachment. Butanoyl(4-N3) = [N-]=[N+]=NCCCC(=O)*; Pent4ynoyl = C#CCCC(=O)*

What was measured:
[1] = biological target: T1, PSMA on the surface of LNCaP cells (human, UniProt Q04609 1-750); assay: cell-based phage ELISA on fixed LNCaP cells, anti-M13-HRP detection, HRP activity as fold change
T1 construct: whole, on cells; Cells were glutaraldehyde-fixed on the plate in the cell-based ELISA and in suspension in the sandwich ELISA; also called cell surface PSMA; PSMA on LNCaP cells

[2] = biological target: T1, PSMA on the surface of LNCaP cells; assay: as above; remark: listed apart in the source
[3] = biological target: T2, prostate-specific membrane antigen (PSMA), dimeric form (UniProt Q04609 44-750, limits assumed); assay: phage ELISA, PSMA coated on the plate, [PSMA] = 13 nM, anti-M13-HRP detection
T2 construct: Purified protein, construct not described; also called dimeric PSMA

[4] = biological target: T2, prostate-specific membrane antigen …; assay: electrochemical impedance of a virus-PEDOT film in PBF-Tween after exposure to PSMA, ΔR/Ro against frequency; concentration not given
[5] = biological target: T3, prostate-specific membrane antigen (PSMA), monomeric form (UniProt Q04609 44-750, limits assumed); assay: phage ELISA, PSMA monomer coated on the plate, [PSMA] = 11.1 nM, anti-M13-HRP detection
T3 construct: Purified protein coated on the ELISA plate; construct not described
Method: (§1) In a phage-based ELISA, specific wells of a 96-well microtiter plate (Nunc Maxisorp) were coated with 100 µL/well of a solution of PSMA (5.56 or 11.1 nM) monomer or dimer protein diluted in PBS. The plate was incubated for 1 h on a shaker at room temperature. The coating solution was removed, and the wells were blocked with 320 µL/well of 0.2% w/v solution of BSA in PBS for 30 min, and washed three times with 300 µL/well of wash buffer PT (0.05% TWEEN-20 in PBS). […] The wells on the ELISA plate were then incubated with the phage samples (100 µL/well) for 1 h. The wells were washed five times with PT and then incubated with horseradish-peroxidase-conjugated anti-M13 antibody (100 µL/well, 1:5000 dilution in PBT) for 30 min. The wells were washed three times with PT, and two times with PBS. The plate was then developed by incubating with HRP substrate solution (100 µL/well; 1 mg/mL o-phenylenediamine dihydrochloride and 0.02% w/v H_2O_2) in citric acid buffer (50 mM citric acid, 50 mM Na_2HPO_4, pH 5.0). Following an appropriate incubation time, HRP activity was measured spectrophotometrically at 450 nm using a microtiter plate reader (Bio-Tek).

bovine serum albumin [6] = biological target: T4, bovine serum albumin (bovine, UniProt P02769 25-607); assay: phage-wrapping ELISA on BSA, anti-M13-HRP detection
T4 construct: also called BSA

[7] = biological target: T2, prostate-specific membrane antigen …; assay: phage ELISA, PSMA dimer coated on the plate, [PSMA] = 11.1 nM, phage titrated, anti-M13-HRP detection
Method: as §1

[8] = biological target: T2, prostate-specific membrane antigen …; assay: electrochemical impedance spectroscopy, virus-PEDOT film, Hill fit of ΔR/Ro against PSMA concentration; phage-2 alone, not wrapped with KCS-1
Method: (§2) Biosensing with Virus-PEDOT Films. To explore whether these wrapped virus particles could be exploited to create virus-electrode biosensors with a higher sensitivity for PSMA, films of PEDOT were prepared on gold electrodes by electropolymerization in the presence of phage-2 (FIG. 2B). The PEDOT films formed in solution during electropolymerization associate with the negatively charged perchlorate ions from the electrolyte solution as it is deposited onto the gold electrode.[30] Polymerization of EDOT in the presence of negatively charged phage particles leads to incorporation of virus particles into the polymeric film as counterion dopants due to electrostatic interactions.[21] […] SEM imaging confirms incorporation of phage into the bioaffinity matrix; both filament-like and less extended features having dimensions consistent with phage integrated as rope-like bundles into the polymer at various angles to the film (FIGS. 4B-4C) were observed. The $KCS$-1 wrapper was then applied in vitro simply by exposing the resultant phage-2 film for a short time to an aqueous solution of the wrapper. For the biosensing measurements, only the highest affinity ligand combination of phage-2 wrapped with $KCS$-1 was used, and it was studied in comparison to phage-2 films.
(§3) where $Y=\Delta R/R_o$, [L] is the ligand concentration, and n is the Hill coefficient.[31] […]

bovine serum albumin [9] = biological target: T4, bovine serum albumin; assay: phage ELISA on BSA, anti-M13-HRP detection
[10] = biological target: T2, prostate-specific membrane antigen …; assay: phage-based wrapping ELISA, PSMA dimer coated (FIG. 3C)
Method: as §1, with “The plate was then developed by incubating with HRP substrate solution (100 µL/well; 1 mg/mL o-phenylenediamine dihydrochloride and 0.02% w/v H_2O_2) in citric acid buffer (50 mM citric acid, 50 mM Na_2HPO_4, pH 5.0).” left out
(§4) Phage-based wrapping ELISA: Phage (5 nM in 225 µL) and 2 µL of the purified cycloaddition reaction product, $KCS$-1/2 (308.7 µM) in water: acetonitrile (60:40), were mixed and serially diluted in PBT. […] Levels of phage binding were quantified as described above.

[11] = biological target: T2, prostate-specific membrane antigen …; assay: electrochemical impedance spectroscopy, virus-PEDOT film, Hill fit of ΔR/Ro against PSMA concentration; phage-2 wrapped with KCS-1
Method: as §2, §3

[12] = biological target: T2, prostate-specific membrane antigen …; assay: electrochemical impedance spectroscopy, virus-PEDOT film, PBF-TWEEN buffer (FIG. 4F)
transferrin receptor = biological target: T5, transferrin receptor (UniProt P02786 89-760, limits assumed); assay: electrochemical impedance of a virus-PEDOT film in PBF-Tween after exposure to TfR, ΔR/Ro against frequency; concentration not given
T5 construct: Alternative target used as specificity control in impedance sensing; also called TfR

[13] = biological target: T2, prostate-specific membrane antigen …; assay: phage-based wrapping ELISA, PSMA dimer coated (FIG. 3A)
Method: as §1, with “The plate was then developed by incubating with HRP substrate solution (100 µL/well; 1 mg/mL o-phenylenediamine dihydrochloride and 0.02% w/v H_2O_2) in citric acid buffer (50 mM citric acid, 50 mM Na_2HPO_4, pH 5.0).” left out
as §4

bovine serum albumin [14] = biological target: T4, bovine serum albumin; assay: phage-wrapping ELISA on BSA, anti-M13-HRP detection; remark: listed apart in the source

T2 sequence (Q04609 44-750 limits assumed): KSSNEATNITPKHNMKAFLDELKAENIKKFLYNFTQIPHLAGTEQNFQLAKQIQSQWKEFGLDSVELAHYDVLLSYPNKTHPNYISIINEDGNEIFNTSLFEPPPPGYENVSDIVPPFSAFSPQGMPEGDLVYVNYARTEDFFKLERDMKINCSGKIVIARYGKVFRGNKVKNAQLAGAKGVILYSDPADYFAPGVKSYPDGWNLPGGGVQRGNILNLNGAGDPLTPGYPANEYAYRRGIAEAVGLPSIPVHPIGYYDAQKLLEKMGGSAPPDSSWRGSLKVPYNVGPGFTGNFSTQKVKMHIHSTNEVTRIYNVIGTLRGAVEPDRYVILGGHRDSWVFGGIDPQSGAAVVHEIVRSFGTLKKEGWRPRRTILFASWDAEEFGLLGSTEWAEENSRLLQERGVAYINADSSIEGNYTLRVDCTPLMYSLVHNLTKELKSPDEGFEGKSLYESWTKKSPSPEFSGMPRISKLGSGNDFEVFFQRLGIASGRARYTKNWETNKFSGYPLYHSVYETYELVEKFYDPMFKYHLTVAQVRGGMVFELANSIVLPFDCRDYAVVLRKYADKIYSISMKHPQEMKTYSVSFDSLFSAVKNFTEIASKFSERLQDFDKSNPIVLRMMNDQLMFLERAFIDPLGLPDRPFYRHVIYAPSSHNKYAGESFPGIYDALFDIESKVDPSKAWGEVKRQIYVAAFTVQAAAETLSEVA
T1 sequence (Q04609 whole entry): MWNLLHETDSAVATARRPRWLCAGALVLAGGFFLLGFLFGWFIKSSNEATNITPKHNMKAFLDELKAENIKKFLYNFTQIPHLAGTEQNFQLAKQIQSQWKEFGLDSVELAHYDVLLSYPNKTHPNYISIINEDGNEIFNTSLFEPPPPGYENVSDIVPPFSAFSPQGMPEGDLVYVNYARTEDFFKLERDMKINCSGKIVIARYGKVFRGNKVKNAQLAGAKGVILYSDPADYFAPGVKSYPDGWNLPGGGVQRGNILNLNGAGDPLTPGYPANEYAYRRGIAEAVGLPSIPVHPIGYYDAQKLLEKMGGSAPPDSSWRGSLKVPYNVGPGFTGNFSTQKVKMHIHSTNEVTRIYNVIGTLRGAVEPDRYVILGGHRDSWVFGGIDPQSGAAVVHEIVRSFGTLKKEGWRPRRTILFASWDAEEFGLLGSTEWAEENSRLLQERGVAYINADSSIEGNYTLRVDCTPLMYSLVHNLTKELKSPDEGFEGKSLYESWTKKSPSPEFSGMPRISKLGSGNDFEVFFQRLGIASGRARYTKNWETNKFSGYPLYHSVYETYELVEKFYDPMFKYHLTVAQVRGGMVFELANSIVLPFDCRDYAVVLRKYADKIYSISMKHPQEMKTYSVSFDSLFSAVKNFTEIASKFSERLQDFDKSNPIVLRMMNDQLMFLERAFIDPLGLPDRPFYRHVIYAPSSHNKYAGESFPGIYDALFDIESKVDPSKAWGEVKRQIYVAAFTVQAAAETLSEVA
T4 sequence (P02769 25-607 limits assumed): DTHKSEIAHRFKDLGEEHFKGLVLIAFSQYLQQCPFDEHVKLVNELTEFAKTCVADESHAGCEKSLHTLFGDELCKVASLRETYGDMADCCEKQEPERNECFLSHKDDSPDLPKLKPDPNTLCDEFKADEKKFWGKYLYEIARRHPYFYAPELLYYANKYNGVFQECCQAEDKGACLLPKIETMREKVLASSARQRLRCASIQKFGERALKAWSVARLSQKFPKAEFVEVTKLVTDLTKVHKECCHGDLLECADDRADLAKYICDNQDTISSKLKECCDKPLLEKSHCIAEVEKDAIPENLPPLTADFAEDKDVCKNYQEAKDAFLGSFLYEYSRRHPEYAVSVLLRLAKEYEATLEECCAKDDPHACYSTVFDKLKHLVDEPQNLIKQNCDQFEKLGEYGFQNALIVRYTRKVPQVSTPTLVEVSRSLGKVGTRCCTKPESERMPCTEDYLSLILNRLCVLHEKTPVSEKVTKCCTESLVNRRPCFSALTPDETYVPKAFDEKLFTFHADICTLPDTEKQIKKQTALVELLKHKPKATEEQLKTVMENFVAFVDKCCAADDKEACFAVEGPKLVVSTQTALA
T5 sequence (P02786 89-760 limits assumed): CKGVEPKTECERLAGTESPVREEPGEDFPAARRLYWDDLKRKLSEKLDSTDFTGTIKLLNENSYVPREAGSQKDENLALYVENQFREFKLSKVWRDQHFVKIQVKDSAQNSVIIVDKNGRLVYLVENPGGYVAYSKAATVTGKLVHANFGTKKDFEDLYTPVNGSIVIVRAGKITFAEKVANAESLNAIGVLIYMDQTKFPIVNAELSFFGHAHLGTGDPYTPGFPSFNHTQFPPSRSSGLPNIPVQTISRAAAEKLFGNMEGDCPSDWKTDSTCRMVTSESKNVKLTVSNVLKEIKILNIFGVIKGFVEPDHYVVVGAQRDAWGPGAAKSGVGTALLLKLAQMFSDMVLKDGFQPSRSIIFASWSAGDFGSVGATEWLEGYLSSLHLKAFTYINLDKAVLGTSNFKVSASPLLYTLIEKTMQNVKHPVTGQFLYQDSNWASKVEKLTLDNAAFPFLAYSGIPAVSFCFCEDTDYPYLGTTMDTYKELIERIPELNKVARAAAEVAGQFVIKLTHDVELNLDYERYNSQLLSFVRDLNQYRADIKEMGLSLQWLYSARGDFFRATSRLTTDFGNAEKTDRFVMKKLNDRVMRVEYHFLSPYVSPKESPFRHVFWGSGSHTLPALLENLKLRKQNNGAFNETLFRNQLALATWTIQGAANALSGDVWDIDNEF
T3 sequence (Q04609 44-750 limits assumed): as the sequence (Q04609 44-750 limits assumed) above

B1: phage wrapped with P100NSP-2 (peptide)
peptide 1: SECVEVFQNSCDW
peptide 2: KKKKKKKKKKKKKKC
chain: AEGDDPAKAAFNSLQASATEYIGYAWAMVVVIVGATIGIKLFKKFTSKAS
modifications: Cys thiol joined to the maleimide of the PEG100 ligand; C-terminal carboxamide; N-terminal azide clicked to pentynoic acid, then HBTU-coupled non-specifically (carboxylates incl. side chains, Asp12 may be partly modified) to Mal-PEG100-NH2; C-terminal carboxamide
notes: mature; Whole M13 virion; K14-Cys held electrostatically on P8
- binding result [1]: binds

B2: phage wrapped with P100SP-2 (peptide)
peptide 1: SECVEVFQNSCDW
peptide 2: KKKKKKKKKKKKKKC
chain: B1 chain
modifications: Cys thiol joined to the maleimide of the PEG100 ligand; C-terminal carboxamide; N-terminal azide clicked to Mal-PEG100-alkyne (specific attachment); C-terminal carboxamide
notes: as for B1
- binding result [2]: binds

B3: phage wrapped with P100SP-P4-2 (peptide)
peptide 1: SECVEVFQNSCDW
peptide 2: KKKKKKKKKKKKKKC
chain: B1 chain
modifications: Cys thiol joined to the maleimide of the PEG100 ligand; C-terminal carboxamide; N-terminal azido-PEG4-carboxylic acid, clicked to Mal-PEG100-alkyne (specific attachment); C-terminal carboxamide
notes: as for B1
- binding result [2]: binds

B4: KO7 helper phage (other, M13 bacteriophage, UniProt P69541 24-73, looked up)
chain: B1 chain
notes: mature; Helper phage lacking a genetically encoded PSMA ligand; bought from GE Healthcare
- binding result [3]: no binding (tested: about 5 nM)

B5: Stop-4 phage (phagemid packaged by helper phage, no ligand displayed) (other, M13 bacteriophage, UniProt P69541 24-73, looked up)
chain: B1 chain
modifications: not fully specified
notes: mature; also called control phage
- binding result [4]: no binding
- binding result [5]: no binding (tested: last point just right of the 10 nM tick)

B6: phage wrapped with P100NSP-P4-2 (peptide)
peptide 1: SECVEVFQNSCDW
peptide 2: KKKKKKKKKKKKKKC
chain: B1 chain
modifications: Cys thiol joined to the maleimide of the PEG100 ligand; C-terminal carboxamide; N-terminal azido-PEG4-carboxylic acid, clicked to pentynoic acid, then HBTU-coupled non-specifically to Mal-PEG100-NH2; C-terminal carboxamide
notes: as for B1
- binding result [2]: binds

B7: phage-2 wrapped with a 1:1 (w/w) mixture of KCS-2 and KCS-1 (peptide)
chain: SECVEVFQNSCDW
peptide 1: Pent4ynoyl-KKKKKKKKKKKKKK-NH2
peptide 2: {Butanoyl(4-N3)}-KKKCALCEFLG-NH2
peptide 3: {Butanoyl(4-N3)}-KKKSECVEVFQNSCDW-NH2
modifications: cysteine pairing not given here; also: K14 chains clicked to ligand chains, triazole to a chain's N-terminus
notes: Whole M13 virion with both wrappers held electrostatically on the coat; also called 1:1 mixture of KCS-1 and KCS-2 wrapped on the surface of phage-2; not shown: M13 major coat protein P8, 50 amino acid residues; NCBI GI:402239556 named in an embodiment
- binding result (bovine serum albumin [6]): no binding (tested: 5 nM)

B8: phage-2 (M13 phage displaying PSMA ligand 2 as a fusion to P8) (peptide)
chain: SECVEVFQNSCDW
modifications: not fully specified; cysteine pairing not given here; also: displayed on M13 phage as fusion to P8 coat protein
notes: Whole M13 virion in the assay (free in ELISA, embedded in a PEDOT film for impedance sensing); also called peptide 2; peptide-2; not shown: M13 major coat protein P8, 50 amino acid residues; NCBI GI:402239556 named in an embodiment
- EC50 (read off the curve) [7]: ~0.008 nM
- Kd [8]: 54 nM
- binding result (bovine serum albumin [9]): no binding (tested: 5 nM)

B9: phage-2 wrapped with KCS-1 (peptide)
chain: SECVEVFQNSCDW
peptide 1: Pent4ynoyl-KKKKKKKKKKKKKK-NH2
peptide 2: {Butanoyl(4-N3)}-KKKCALCEFLG-NH2
modifications: not fully specified; cysteine pairing not given here; also: KCS-1 wrapper held on P8 coat electrostatically, triazole to a chain's N-terminus
notes: Whole M13 virion (free in ELISA, embedded in a PEDOT film for impedance sensing); the KCS-1 wrapper is held on the P8 coat electrostatically; also called Phage-2 film wrapped with KCS-1; not shown: M13 major coat protein P8, 50 amino acid residues; NCBI GI:402239556 named in an embodiment
- fold higher apparent affinity than phage-2 wrapped with KCS-2 [10]: 4 fold
- Kd [11]: 33 nM
- fold ΔR/Ro relative to films with unwrapped phage-2 [12]: 3 fold
- binding result (bovine serum albumin [6]): no binding (tested: 5 nM)
- binding result (transferrin receptor): no binding

B10: phage-2 wrapped with KCS-2 (peptide)
chain: SECVEVFQNSCDW
peptide 1: Pent4ynoyl-KKKKKKKKKKKKKK-NH2
peptide 2: {Butanoyl(4-N3)}-KKKSECVEVFQNSCDW-NH2
modifications: not fully specified; cysteine pairing not given here; also: KCS-2 wrapper held on P8 coat electrostatically, triazole to a chain's N-terminus
notes: Whole M13 virion; the KCS-2 wrapper (K14 clicked to K3-ligand 2) is held on the P8 coat electrostatically, not covalently; also called Phage with chemically and genetically encoded ligands; not shown: M13 major coat protein P8, 50 amino acid residues; NCBI GI:402239556 named in an embodiment
- fold higher affinity than phage-2 without the ligand wrapper [13]: ~50 fold
- binding result (bovine serum albumin [14]): no binding (tested: 5 nM)
